# Laboratory results as given in article PMC5458144 (2017).
# Biological target: CRL4A-CRBN (Homo sapiens, UniProt Q96SW2)
# Experiment: TR-FRET
# CRL4A-CRBN, sequence (Q96SW2 whole entry, chain 1 of 4): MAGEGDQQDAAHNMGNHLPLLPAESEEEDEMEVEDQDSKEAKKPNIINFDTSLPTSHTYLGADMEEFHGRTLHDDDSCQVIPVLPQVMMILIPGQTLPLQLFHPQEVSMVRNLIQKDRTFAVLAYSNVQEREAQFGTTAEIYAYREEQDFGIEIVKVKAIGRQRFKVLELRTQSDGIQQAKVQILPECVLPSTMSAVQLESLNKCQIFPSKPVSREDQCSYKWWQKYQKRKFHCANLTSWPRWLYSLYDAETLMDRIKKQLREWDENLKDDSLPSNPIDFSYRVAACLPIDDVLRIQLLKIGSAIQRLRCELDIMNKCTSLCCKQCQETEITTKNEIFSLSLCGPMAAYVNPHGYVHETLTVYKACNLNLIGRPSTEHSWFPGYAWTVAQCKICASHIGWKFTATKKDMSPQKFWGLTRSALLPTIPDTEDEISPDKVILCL
# CRL4A-CRBN, sequence (Q16531 2-1140, chain 2 of 4, further chain): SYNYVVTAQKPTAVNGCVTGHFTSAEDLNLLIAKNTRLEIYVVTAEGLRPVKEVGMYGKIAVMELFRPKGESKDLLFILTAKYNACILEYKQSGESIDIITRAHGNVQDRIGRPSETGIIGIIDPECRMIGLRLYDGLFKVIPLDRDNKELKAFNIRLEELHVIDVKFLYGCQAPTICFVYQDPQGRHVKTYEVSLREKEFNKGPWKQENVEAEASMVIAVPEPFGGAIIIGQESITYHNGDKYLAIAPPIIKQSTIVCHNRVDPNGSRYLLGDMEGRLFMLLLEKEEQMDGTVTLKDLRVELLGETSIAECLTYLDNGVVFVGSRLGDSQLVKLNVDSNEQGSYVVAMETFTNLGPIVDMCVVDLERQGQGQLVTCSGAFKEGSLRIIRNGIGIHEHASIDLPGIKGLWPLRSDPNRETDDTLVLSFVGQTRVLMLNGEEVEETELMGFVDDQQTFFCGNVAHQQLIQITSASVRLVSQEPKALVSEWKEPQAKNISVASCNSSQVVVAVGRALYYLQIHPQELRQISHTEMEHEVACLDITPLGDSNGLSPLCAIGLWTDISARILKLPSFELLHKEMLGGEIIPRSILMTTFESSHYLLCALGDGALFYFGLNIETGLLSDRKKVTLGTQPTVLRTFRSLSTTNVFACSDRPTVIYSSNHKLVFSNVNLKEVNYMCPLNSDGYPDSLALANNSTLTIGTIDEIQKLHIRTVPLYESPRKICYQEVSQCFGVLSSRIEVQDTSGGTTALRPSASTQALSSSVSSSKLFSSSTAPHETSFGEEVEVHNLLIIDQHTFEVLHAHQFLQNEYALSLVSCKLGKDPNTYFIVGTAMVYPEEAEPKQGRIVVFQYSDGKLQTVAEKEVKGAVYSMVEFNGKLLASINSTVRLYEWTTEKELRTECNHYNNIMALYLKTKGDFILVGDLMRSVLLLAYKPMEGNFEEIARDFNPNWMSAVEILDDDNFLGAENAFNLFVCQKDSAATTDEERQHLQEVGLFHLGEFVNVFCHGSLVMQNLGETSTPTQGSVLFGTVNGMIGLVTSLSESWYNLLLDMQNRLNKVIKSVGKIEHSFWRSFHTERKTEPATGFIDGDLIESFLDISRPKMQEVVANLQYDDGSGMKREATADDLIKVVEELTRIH
# CRL4A-CRBN, sequence (Q13619 whole entry, chain 3 of 4, further chain): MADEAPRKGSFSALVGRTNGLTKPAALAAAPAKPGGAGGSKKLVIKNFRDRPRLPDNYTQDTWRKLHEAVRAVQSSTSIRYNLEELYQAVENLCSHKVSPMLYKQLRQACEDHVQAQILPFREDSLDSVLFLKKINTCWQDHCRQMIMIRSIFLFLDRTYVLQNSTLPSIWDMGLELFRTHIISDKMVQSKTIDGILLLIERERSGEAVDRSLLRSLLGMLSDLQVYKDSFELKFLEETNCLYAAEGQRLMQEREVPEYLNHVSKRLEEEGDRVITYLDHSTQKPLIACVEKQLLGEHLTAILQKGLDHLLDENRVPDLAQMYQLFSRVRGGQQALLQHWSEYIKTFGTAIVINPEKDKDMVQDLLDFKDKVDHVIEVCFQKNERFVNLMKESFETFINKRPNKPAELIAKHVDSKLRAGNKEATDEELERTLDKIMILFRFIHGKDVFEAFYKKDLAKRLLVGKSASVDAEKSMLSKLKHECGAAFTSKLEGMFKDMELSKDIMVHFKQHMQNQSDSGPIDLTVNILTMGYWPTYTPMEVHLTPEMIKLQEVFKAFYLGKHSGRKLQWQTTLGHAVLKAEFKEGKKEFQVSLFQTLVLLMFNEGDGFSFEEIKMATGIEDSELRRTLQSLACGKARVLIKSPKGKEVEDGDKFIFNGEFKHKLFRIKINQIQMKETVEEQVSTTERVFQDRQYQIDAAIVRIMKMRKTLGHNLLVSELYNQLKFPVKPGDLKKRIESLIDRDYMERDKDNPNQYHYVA
# CRL4A-CRBN, sequence (P62877 2-108, chain 4 of 4, further chain): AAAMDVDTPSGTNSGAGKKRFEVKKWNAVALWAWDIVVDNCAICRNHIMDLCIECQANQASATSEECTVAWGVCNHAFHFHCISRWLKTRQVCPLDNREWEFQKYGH
binder,measurement,value
"ZFP91 (protein, lenalidomide) PGETEEPRPPEQQDQEGGEAAKAAPEEPQQRPPEAVAAAPAGTTSSRVLRGGRDRGRAAAAAAAAAVSRRRKAEYPRRRRSSPSARPPDVPGQQPQAAKSPSPVQGKKSPRLLCIEKVTTDKDPKEEKEEEDDSALPQEVSIAASRPSRGWRSSRTSVSRHRDTENTRSSRSKTGSLQLICKSEPNTDQLDYDVGEEHQSPGGISSEEEEEEEEEMLISEEEIPFKDDPRDETYKPHLERETPKPRRKSGKVKEEKEKKEIKVEVEVEVKEEENEIREDEEPPRKRGRRRKDDKSPRLPKRRKKPPIQYVRCEMEGCGTVLAHPRYLQHHIKYQHLLKKKYVCPHPSCGRLFRLQKQLLRHAKHHTDQRDYICEYCARAFKSSHNLAVHRMIHTGEKPLQCEICGFTCRQKASLNWHMKKHDADSFYQFSCNICGKKFEKKDSVVAHKAKSHPEVLIAEALAANAGALITSTDILGTNPESLTQPSDGQGLPLLPEPLGNSTSGECLLLEAEGMSKSYCSGTERVSLMADGKIFVGSGSSGGTEGLVMNSDILGATTEVLIEDSDSAGP",Kd,107 nM
